Article PMC8809517, “Cofactor-independent RNA editing by a synthetic S-type PPR protein”

How the values were obtained:
Experiment in all cases: high-throughput RNA pulldown from lysate on Ni-NTA beads; HRP: 50 mM Tris pH 8, 150 mM NaCl, 1 mM beta-mercaptoethanol, 50 ug/ml BSA, 3 ug/ml yeast RNA, 0.5% heparin; ITC and FP: Tris pH 8, 200 mM KCl, 5% glycerol; MST: 50 mM Tris pH 8, 200 mM NaCl, 1 mM DTT, BSA, heparin, 0.05% Tween 20
Details in all cases: tags: N-terminal His-eGFP
[1] = target: T1, GFP-9S library array, motif 4 ND N98S;D124Q (synthetic construct, N98S;D124Q)
T1 chain: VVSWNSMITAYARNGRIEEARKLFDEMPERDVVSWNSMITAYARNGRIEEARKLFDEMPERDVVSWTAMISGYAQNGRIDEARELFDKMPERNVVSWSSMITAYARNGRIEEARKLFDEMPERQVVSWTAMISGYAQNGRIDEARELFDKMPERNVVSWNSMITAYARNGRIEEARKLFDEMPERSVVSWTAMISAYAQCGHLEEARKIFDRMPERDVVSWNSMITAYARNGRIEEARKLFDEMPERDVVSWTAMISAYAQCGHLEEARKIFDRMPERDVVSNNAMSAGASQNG

[2] = target: T2, GFP-9S library array, motif 4 ND N98I;D124P (synthetic construct, N98I;D124P)
T2 chain: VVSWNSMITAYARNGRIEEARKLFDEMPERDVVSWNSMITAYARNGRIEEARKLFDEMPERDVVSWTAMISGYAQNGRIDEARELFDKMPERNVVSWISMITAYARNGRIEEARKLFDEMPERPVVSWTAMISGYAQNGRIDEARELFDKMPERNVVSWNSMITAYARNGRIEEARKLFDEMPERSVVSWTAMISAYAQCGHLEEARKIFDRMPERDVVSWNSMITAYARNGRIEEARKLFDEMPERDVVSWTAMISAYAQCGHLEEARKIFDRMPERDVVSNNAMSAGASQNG

[3] = target: T3, GFP-9S library array, motif 4 ND N98V;D124H (synthetic construct, N98V;D124H)
T3 chain: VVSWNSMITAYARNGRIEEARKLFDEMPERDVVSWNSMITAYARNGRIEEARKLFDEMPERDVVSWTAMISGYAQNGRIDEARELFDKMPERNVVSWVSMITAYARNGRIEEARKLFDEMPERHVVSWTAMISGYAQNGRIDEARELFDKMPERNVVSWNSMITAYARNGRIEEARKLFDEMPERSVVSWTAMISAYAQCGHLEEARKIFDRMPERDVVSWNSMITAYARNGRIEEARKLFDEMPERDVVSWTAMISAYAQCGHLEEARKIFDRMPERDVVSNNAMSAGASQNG

[4] = target: T4, GFP-9S library array, motif 4 ND N98Q;D124R (synthetic construct, N98Q;D124R)
T4 chain: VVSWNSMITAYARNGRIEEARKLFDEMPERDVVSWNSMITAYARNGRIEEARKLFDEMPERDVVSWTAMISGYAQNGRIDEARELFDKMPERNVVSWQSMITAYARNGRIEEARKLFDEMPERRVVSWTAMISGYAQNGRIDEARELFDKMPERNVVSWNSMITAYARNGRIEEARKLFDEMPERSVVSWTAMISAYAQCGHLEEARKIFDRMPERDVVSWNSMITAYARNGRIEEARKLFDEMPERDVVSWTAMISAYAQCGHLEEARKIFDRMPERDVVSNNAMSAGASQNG

[5] = target: T5, GFP-9S library array, motif 4 ND N98W;D124V (synthetic construct, N98W;D124V)
T5 chain: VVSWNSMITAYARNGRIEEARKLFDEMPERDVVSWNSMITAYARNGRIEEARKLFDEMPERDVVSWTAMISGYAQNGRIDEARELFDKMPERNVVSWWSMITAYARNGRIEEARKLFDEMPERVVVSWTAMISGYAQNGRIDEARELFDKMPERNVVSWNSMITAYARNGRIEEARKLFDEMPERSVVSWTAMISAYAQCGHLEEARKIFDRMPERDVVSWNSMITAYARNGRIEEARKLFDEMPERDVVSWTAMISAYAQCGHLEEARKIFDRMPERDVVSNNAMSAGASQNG

AUUACACGUGA (ssRNA) [Cy5-rpoA]
Kd ([1]; label: 5' Cy5): 95.2 nM | Kd ([2]; label: 5' Cy5): 132 nM | Kd ([3]; label: 5' Cy5): 160 nM | Kd ([4]; label: 5' Cy5): 95.2 nM | Kd ([5]; label: 5' Cy5): 41.1 nM

AUUAGACGUGA (ssRNA) [Cy5-rpoA-G]
Kd ([1]; label: 5' Cy5): 39.2 nM | Kd ([2]; label: 5' Cy5): 112 nM | Kd ([3]; label: 5' Cy5): 155 nM | Kd ([4]; label: 5' Cy5): 77.7 nM | Kd ([5]; label: 5' Cy5): 50.8 nM

AUUAAACGUGA (ssRNA) [IR-rpoA-A]
Kd ([1]; label: 5' IRDye 800CW): 40.3 nM | Kd ([2]; label: 5' IRDye 800CW): 266 nM | Kd ([3]; label: 5' IRDye 800CW): 209 nM | Kd ([4]; label: 5' IRDye 800CW): 201 nM | Kd ([5]; label: 5' IRDye 800CW): 95.6 nM

AUUAUACGUGA (ssRNA) [IR-rpoA-U]
Kd ([1]; label: 5' IRDye 800CW): 179 nM | Kd ([2]; label: 5' IRDye 800CW): 269 nM | Kd ([3]; label: 5' IRDye 800CW): 219 nM | Kd ([4]; label: 5' IRDye 800CW): 138 nM | Kd ([5]; label: 5' IRDye 800CW): 100 nM
